Results published in paper PMC3285612.
pKd, pKi: −log10 of the molar value. Like-named read-outs stand apart in the source and are kept apart here.

Assays:
[1] = biological target: recombinant Simukunin (rSV-66) (Simulium vittatum) (UniProt B5M0W4); assay: SPR; kinetics: rSimukunin immobilised on a CM5 chip by amine coupling (475.3 RU); FXa 3.1-50 nM or elastase 0.45-3.75 nM injected for 180 s at 30 µl/minute, 25°C; HBS-P (10 mM Hepes pH 7.4, 150 mM NaCl, 0.005% P20); global fit to a 1:1 Langmuir model
[2] = biological target: Factor X (FX) (Homo sapiens) (UniProt P00742); conditions: cited from earlier work
Factor Xa (Homo sapiens) = Factor Xa (Homo sapiens) (UniProt P00742); conditions: cited from earlier work
[3] = biological target: Factor Xa (FXa) (Homo sapiens) (UniProt P00742); conditions: cited from earlier work
Factor X (Homo sapiens) = Factor X (Homo sapiens) (UniProt P00742); conditions: cited from earlier work
thrombin [4] = biological target: thrombin (UniProt P00734); conditions: cited from earlier work
thrombin [5] = biological target: thrombin (UniProt P00734); conditions: cited from earlier work; remark: listed apart in the source

Chain of recombinant Simukunin (rSV-66) (Simulium vittatum) (B5M0W4 20-102): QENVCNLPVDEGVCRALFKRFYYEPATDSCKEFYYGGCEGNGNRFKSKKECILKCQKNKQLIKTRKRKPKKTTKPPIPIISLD
Chain of ixolaris (Q964Q0 27-165): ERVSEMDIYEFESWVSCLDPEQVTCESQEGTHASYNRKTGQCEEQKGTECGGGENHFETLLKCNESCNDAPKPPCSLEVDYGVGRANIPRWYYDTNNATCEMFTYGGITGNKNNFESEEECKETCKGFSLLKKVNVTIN
Chain of amblin (Q5VJG2 16-166): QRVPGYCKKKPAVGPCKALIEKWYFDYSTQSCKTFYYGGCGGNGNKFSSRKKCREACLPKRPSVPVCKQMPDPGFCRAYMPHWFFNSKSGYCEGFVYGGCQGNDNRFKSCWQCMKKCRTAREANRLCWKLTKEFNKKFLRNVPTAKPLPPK
Chain of ornithodorin (P56409 whole entry): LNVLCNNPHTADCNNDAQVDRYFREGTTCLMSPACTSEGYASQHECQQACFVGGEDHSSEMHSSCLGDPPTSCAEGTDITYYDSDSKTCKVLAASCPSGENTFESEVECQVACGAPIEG
Chain of Factor Xa (Homo sapiens) (P00742 235-488): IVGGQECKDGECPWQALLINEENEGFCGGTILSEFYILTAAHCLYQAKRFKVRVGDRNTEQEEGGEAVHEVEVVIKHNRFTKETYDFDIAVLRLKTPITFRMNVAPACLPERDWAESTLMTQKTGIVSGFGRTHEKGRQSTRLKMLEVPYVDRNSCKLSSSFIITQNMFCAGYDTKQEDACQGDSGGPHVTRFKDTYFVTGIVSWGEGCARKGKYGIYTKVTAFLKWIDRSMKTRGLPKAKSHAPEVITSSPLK
Chain of Factor Xa (FXa) (Homo sapiens) (P00742 41-179, chain 1 of 2): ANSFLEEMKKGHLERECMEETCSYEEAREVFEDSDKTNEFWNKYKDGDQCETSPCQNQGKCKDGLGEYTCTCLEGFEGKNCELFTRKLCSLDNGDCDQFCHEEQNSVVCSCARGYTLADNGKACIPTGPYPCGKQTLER
Chain of Factor Xa (FXa) (Homo sapiens) (P00742 235-488, chain 2 of 2): as the sequence (P00742 235-488) above
Chain of Factor X (Homo sapiens) (P00742 41-179): as the sequence (P00742 41-179, chain 1 of 2) above
Chain of Factor X (FX) (Homo sapiens) (P00742 41-179, chain 1 of 2): as above
Chain of Factor X (FX) (Homo sapiens) (P00742 183-488, chain 2 of 2): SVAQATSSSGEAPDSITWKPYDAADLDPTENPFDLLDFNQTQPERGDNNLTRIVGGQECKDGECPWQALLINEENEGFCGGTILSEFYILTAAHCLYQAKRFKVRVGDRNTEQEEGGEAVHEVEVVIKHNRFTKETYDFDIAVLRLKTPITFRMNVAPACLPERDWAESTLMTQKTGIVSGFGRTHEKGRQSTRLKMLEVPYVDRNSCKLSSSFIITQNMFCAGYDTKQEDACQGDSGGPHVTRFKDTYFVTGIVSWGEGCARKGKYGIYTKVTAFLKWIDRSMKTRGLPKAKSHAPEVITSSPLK

## activated coagulation factor X (FXa), human (enzyme)
[1]
  pKd: 8.51
  koff: 0.000303 s⁻¹
  kon: 98700 M⁻¹ s⁻¹

## ixolaris (from UniProt Q964Q0)
[2]
  pKd: 9.17
Factor Xa (Homo sapiens)
  pKd: 9.60
[3]
  pKd: 9.60
Factor X (Homo sapiens)
  pKd: 9.17

## ornithodorin (from UniProt P56409)
Thrombin [4]
  pKi: 12.00

## amblin (from UniProt Q5VJG2)
Thrombin [5]
  pKi: 7.70
